Laboratory results from article PMC4699637, “Papillomavirus-Associated Tumor Formation Critically Depends on c-Fos Expression Induced by Viral Protein E2 and Bromodomain Protein Brd4”.

Legend:
[1] = biological target: T1, c-Jun (UniProt P05412 1-331); test: EMSA; homodimer; conditions: protein: recombinant; chain copies: 2; label: 32P; blunt
[2] = biological target: T1, c-Jun; test: competition; homodimer; 100-fold excess unlabeled vs N1; conditions: protein: recombinant; chain copies: 2; blunt

T1 sequence (P05412 whole entry): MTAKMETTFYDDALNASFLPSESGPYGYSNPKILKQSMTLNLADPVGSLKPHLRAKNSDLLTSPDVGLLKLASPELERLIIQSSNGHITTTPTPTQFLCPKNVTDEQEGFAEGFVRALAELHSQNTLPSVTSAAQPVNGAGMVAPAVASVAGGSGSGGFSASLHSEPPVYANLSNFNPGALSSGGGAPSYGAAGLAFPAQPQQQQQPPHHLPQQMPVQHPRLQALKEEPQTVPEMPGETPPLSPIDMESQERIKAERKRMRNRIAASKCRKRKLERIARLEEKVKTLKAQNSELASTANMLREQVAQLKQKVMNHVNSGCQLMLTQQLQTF

B1: dAP CRPV URR WT (dsDNA)
DNA 1: GCATGCGATGACACATTACAC
DNA 2: GTGTAATGTGTCATCGCATGC
[1]
  binding result: binds

B2: dAP CRPV URR mut (mdAP) (dsDNA)
DNA 1: GCATGCGACATATGTTACAC
DNA 2: GTGTAACATATGTCGCATGC
[2]
  binding result: no binding
